T1: FliF (S. Typhimurium, MS-ring protein) (S. Typhimurium (endogenous in strains …, UniProt P15928 1-560))
T1 construct: FliF, flagellar M-ring protein of Salmonella enterica serovar Typhimurium; endogenous protein in basal bodies; only its C-terminus (residues 523–560) is described in the C-ring models; also called FliFC; FliF C-terminus; source: endogenous, S. Typhimurium strains TH25455 (CCW locked) and TH25631 (CW locked), in purified basal bodies
T1 sequence (looked up): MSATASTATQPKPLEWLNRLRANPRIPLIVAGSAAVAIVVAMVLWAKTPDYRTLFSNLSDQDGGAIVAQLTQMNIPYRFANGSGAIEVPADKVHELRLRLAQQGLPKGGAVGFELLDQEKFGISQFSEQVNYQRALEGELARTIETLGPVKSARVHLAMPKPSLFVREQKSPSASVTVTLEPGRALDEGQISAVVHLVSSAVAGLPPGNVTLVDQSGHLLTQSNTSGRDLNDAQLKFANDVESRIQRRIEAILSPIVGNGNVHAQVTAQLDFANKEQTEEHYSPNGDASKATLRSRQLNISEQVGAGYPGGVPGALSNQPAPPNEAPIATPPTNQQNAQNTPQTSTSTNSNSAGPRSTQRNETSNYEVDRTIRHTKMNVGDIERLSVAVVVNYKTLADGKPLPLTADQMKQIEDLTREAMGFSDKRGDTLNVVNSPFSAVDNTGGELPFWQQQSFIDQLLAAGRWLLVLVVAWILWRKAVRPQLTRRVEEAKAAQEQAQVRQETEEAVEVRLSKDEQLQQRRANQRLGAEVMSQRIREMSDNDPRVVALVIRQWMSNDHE

B1: FliM (S. Typhimurium) (natural protein, UniProt P26418 1-334, looked up)
chain: MGDSILSQAEIDALLNGDSDTKDEPTPGIASDSDIRPYDPNTQRRVVRERLQALEIINERFARQFRMGLFNLLRRSPDITVGAIRIQPYHEFARNLPVPTNLNLIHLKPLRGTGLVVFSPSLVFIAVDNLFGGDGRFPTKVEGREFTHTEQRVINRMLKLALEGYSDAWKAINPLEVEYVRSEMQVKFTNITTSPNDIVVNTPFHVEIGNLTGEFNICLPFSMIEPLRELLVNPPLENSRHEDQNWRDNLVRQVQHSELELVANFADIPLRLSQILKLKPGDVLPIEKPDRIIAHVDGVPVLTSQYGTVNGQYALRVEHLINPILNSLNEEQPK
notes: FliM, flagellar motor switch protein of Salmonella enterica serovar Typhimurium; endogenous protein in basal bodies; The extreme N-terminus is disordered in both structures; also called FliMM; FliMC; source: endogenous, S. Typhimurium strains TH25455 (CCW locked) and TH25631 (CW locked), in purified basal bodies; copies: 34
B2: FliN (S. Typhimurium) (natural protein, UniProt P26419 1-137, looked up)
chain: MSDMNNPSDENTGALDDLWADALNEQKATTTKSAADAVFQQLGGGDVSGAMQDIDLIMDIPVKLTVELGRTRMTIKELLRLTQGSVVALDGLAGEPLDILINGYLIAQGEVVVVADKYGVRITDIITPSERMRRLSR
notes: FliN, flagellar motor switch protein of Salmonella enterica serovar Typhimurium; endogenous protein in basal bodies; Three copies of FliN in each C-ring subunit; also called FliN3; source: endogenous, S. Typhimurium strains TH25455 (CCW locked) and TH25631 (CW locked), in purified basal bodies
B3: FliG-ΔPAA (S. Typhimurium, CW-locking deletion of residues 169–171) (natural protein)
chain: MSNLSGTDKSVILLMTIGEDRAAEVFKHLSTREVQALSTAMANVRQISNKQLTDVLSEFEQEAEQFAALNINANEYLRSVLVKALGEERASSLLEDILETRDTTSGIETLNFMEPQSAADLIRDEHPQIIATILVHLKRSQAADILALFDERLRHDVMLRIATFGGVQLAELTEVLNGLLDGQNLKRSKMGGVRTAAEIINLMKTQQEEAVITAVREFDGELAQKIIDEMFLFENLVDVDDRSIQRLLQEVDSESLLIALKGAEPPLREKFLRNMSQRAADILRDDLANRGPVRLSQVENEQKAILLIVRRLAETGEMVIGSGEDTYV
notes: FliG of Salmonella enterica serovar Typhimurium with the CW-locking PAA deletion at residues 169–171; also called CW-locked mutant; source: endogenous locus mutant, S. Typhimurium strain TH25631 (CW locked), in purified basal bodies (sucrose gradient); copies: 34
B4: FliG (S. Typhimurium, wild type, in the CCW-locked C-ring) (natural protein, UniProt P0A1J9 1-331, looked up)
chain: MSNLSGTDKSVILLMTIGEDRAAEVFKHLSTREVQALSTAMANVRQISNKQLTDVLSEFEQEAEQFAALNINANEYLRSVLVKALGEERASSLLEDILETRDTTSGIETLNFMEPQSAADLIRDEHPQIIATILVHLKRSQAADILALFDERLRHDVMLRIATFGGVQPAALAELTEVLNGLLDGQNLKRSKMGGVRTAAEIINLMKTQQEEAVITAVREFDGELAQKIIDEMFLFENLVDVDDRSIQRLLQEVDSESLLIALKGAEPPLREKFLRNMSQRAADILRDDLANRGPVRLSQVENEQKAILLIVRRLAETGEMVIGSGEDTYV
notes: FliG, flagellar motor switch protein of Salmonella enterica serovar Typhimurium; endogenous protein in basal bodies; residues up to 331 are named; One FliG in each of the about 34 C-ring subunits (C34 is the dominant class); also called FliGN; FliGM; source: endogenous, S. Typhimurium strain TH25455 (CCW locked, ΔcheY), in purified basal bodies (sucrose gradient); copies: 34
B5: C. sporogenes MotA (residues 1–262, of the MotA1–262-FliG239–333 fusion) (domain or fragment, Clostridium sporogenes, UniProt A0A7U4JQH9 1-262, looked up)
chain: MKKRDILTPIGFVLCFGLVLWGMASGGSNLKVFWDVASVFITIGGSMAAMLITYPMDEFKRLLIVIRQTFKDNGMSNIDVIQNFVDLSRKARREGLLSLEDAINNLTDDYMKKGLRMVVDGIEPETIREIMELEIDEMEKRHKSGADMLKTWGGYAPAFGMVGTLIGLIQMLANLTDSSTIASGMGKALITTFYGSLMANAVFNPMGANLMFKSGVEATTREMVLEGVLAIQSGVNPRIMEEKLVSYLSPPERQAYSKVQVS
notes: MotA of Clostridium sporogenes 388 (DSM 795), residues 1–262; several linker lengths were tried) to FliG 239–333 on one chain; also called MotA component; source: E. coli MT56, pT12 vector, co-expressed with MotB, purified (LMNG, Strep-Tactin XT, Superose 6)
B6: C. sporogenes FliG C-terminal domain (residues 239–333, of the MotA1–262-FliG239–333 fusion) (domain or fragment)
chain: VFEDIITLDDVAIQRVLREVETKDLALALKGSSEEVANVIFRNQSKRAASSLKEDIEFLGPVRIMDVEKAQQGIVSIIRRLDEAGEIVISRGGED

The target in data set [1] is C. sporogenes MotB with C-terminal Twin-Strep tag (Clostridium sporogenes). Briefly: cryo-EM structure; C. sporogenes MotA1–262-FliG239–333 fusion co-expressed with MotB-Twin-Strep in E. coli, purified in LMNG; 2.4 Å map.
Data set [2] deals with the molecule itself. Briefly: cryo-EM structure; intact flagellar basal bodies with C-rings from S. Typhimurium TH25455 (ΔcheY, CCW locked), assembled in cells and purified on a sucrose gradient in Triton X-100; C34 class, symmetry expansion and local refinement around 3 subunits, 3.6 Å global.
Data set [3] deals with B1. The description is as above. As to conditions: both partners purified.
Data set [4] concerns the molecule itself. Briefly: cryo-EM structure; intact flagellar basal bodies with C-rings from S. Typhimurium TH25631 (fliG-ΔPAA, CW locked), assembled in cells and purified on a sucrose gradient in Triton X-100; C34 class, symmetry expansion and local refinement around 3 subunits, 4.0 Å global.
The target in data set [5] is B1. The data set is described as above. As to conditions: both partners purified.
Data set [6] has as its target T1, FliF (S. Typhimurium, MS-ring protein). The description is as above. The following applies: both partners purified.
The target is the same in data set [7]. Briefly: cryo-EM structure; intact flagellar basal bodies with C-rings from S. Typhimurium TH25455 (ΔcheY, CCW locked), assembled in cells and purified on a sucrose gradient in Triton X-100; C34 class, symmetry expansion and local refinement around 3 subunits, 3.6 Å global. As to conditions: both partners purified.
Data set [8] concerns the molecule itself. Briefly: cryo-EM structure; C. sporogenes MotA1–262-FliG239–333 fusion co-expressed with MotB-Twin-Strep in E. coli, purified in LMNG; 2.4 Å map.
The target of data set [9] is C. sporogenes MotA5MotB2 stator complex (Clostridium sporogenes). The description is as above.

In general, stoichiometry N refers to the number of molecules, sites or subunits per partner or assembly.

Bounds are passed on as bounds.

Take “C. sporogenes MotB with C-terminal Twin-Strep tag (natural protein)”: the stoichiometry N in [1] was determined as 2.
With B1, in data set [2], the binding result is given as “binds”.
As for B2, in the data set with FliM (S. Typhimurium) [3], the “stoichiometry N” value was determined as 3. Further, the binding result in data set [4] is listed as “binds”.
Turning to B3, the binding result (with FliM (S. Typhimurium) [5]; in data set [6]) was “binds” throughout. Also, the “stoichiometry N” value in [4] is 34.
As to B4, the binding result (in the data set with FliM (S. Typhimurium) [3]; in data set [7]) was “binds” each time. Further, the “stoichiometry N” value in data set [2] amounted to 34.
In the case of B5, the “stoichiometry N” value in [8] worked out at 5.
B6 came in with a stoichiometry N in data set [9] below 3.

Source of the values: article PMC11302681, “Structural Basis of Directional Switching by the Bacterial Flagellum” (Research Square, 2023).
